Read-outs that look alike come from different tables or passages of the source.
B1: PUF60: host protein, UniProt Q9UHX1 (protein, UniProt Q9UHX1 1-559, looked up)
Poly(U)-binding-splicing …: MATATIALQVNGQQGGGSEPAAAAAVVAAGDKWKPPQGTDSIKMENGQSTAAKLGLPPLTPEQQEALQKAKKYAMEQSIKSVLVKQTIAHQQQQLTNLQMAAVTMGFGDPLSPLQSMAAQRQRALAIMCRVYVGSIYYELGEDTIRQAFAPFGPIKSIDMSWDSVTMKHKGFAFVEYEVPEAAQLALEQMNSVMLGGRNIKVGRPSNIGQAQPIIDQLAEEARAFNRIYVASVHQDLSDDDIKSVFEAFGKIKSCTLARDPTTGKHKGYGFIEYEKAQSSQDAVSSMNLFDLGGQYLRVGKAVTPPMPLLTPATPGGLPPAAAVAAAAATAKITAQEAVAGAAVLGTLGTPGLVSPALTLAQPLGTLPQAVMAAQAPGVITGVTPARPPIPVTIPSVGVVNPILASPPTLGLLEPKKEKEEEELFPESERPEMLSEQEHMSISGSSARHMVMQKLLRKQESTVMVLRNMVDPKDIDDDLEGEVTEECGKFGAVNRVIIYQEKQGEEEDAEIIVKIFVEFSIASETHKAIQALNGRWFAGRKVVAEVYDQERFDNSDLSA
B2: CON_P35908 (protein, UniProt P35908 1-639, looked up)
Keratin, type II cytoskeletal …: MSCQISCKSRGRGGGGGGFRGFSSGSAVVSGGSRRSTSSFSCLSRHGGGGGGFGGGGFGSRSLVGLGGTKSISISVAGGGGGFGAAGGFGGRGGGFGGGSSFGGGSGFSGGGFGGGGFGGGRFGGFGGPGGVGGLGGPGGFGPGGYPGGIHEVSVNQSLLQPLNVKVDPEIQNVKAQEREQIKTLNNKFASFIDKVRFLEQQNQVLQTKWELLQQMNVGTRPINLEPIFQGYIDSLKRYLDGLTAERTSQNSELNNMQDLVEDYKKKYEDEINKRTAAENDFVTLKKDVDNAYMIKVELQSKVDLLNQEIEFLKVLYDAEISQIHQSVTDTNVILSMDNSRNLDLDSIIAEVKAQYEEIAQRSKEEAEALYHSKYEELQVTVGRHGDSLKEIKIEISELNRVIQRLQGEIAHVKKQCKNVQDAIADAEQRGEHALKDARNKLNDLEEALQQAKEDLARLLRDYQELMNVKLALDVEIATYRKLLEGEECRMSGDLSSNVTVSVTSSTISSNVASKAAFGGSGGRGSSSGGGYSSGSSSYGSGGRQSGSRGGSGGGGSISGGGYGSGGGSGGRYGSGGGSKGGSISGGGYGSGGGKHSSGGGSRGGSSSGGGYGSGGGGSSSVKGSSGEAFGSSVTFSFR
B3: POLDIP3: host protein, UniProt Q9BY77 (protein, UniProt Q9BY77 2-421, looked up)
Polymerase delta-interacting …: ADISLDELIRKRGAAAKGRLNARPGVGGVRSRVGIQQGLLSQSTRTATFQQRFDARQKIGLSDARLKLGVKDAREKLLQKDARFRIKGKVQDAREMLNSRKQQTTVPQKPRQVADAREKISLKRSSPAAFINPPIGTVTPALKLTKTIQVPQQKAMAPLHPHPAGMRINVVNNHQAKQNLYDLDEDDDGIASVPTKQMKFAASGGFLHHMAGLSSSKLSMSKALPLTKVVQNDAYTAPALPSSIRTKALTNMSRTLVNKEEPPKELPAAEPVLSPLEGTKMTVNNLHPRVTEEDIVELFCVCGALKRARLVHPGVAEVVFVKKDDAITAYKKYNNRCLDGQPMKCNLHMNGNVITSDQPILLRLSDSPSMKKESELPRRVNSASSSNPPAEVDPDTILKALFKSSGASVTTQPTEFKIKL
B4: CKAP4: host protein, UniProt Q07065 (protein, UniProt Q07065 1-602, looked up)
Cytoskeleton-associated …: MPSAKQRGSKGGHGAASPSEKGAHPSGGADDVAKKPPPAPQQPPPPPAPHPQQHPQQHPQNQAHGKGGHRGGGGGGGKSSSSSSASAAAAAAAASSSASCSRRLGRALNFLFYLALVAAAAFSGWCVHHVLEEVQQVRRSHQDFSRQREELGQGLQGVEQKVQSLQATFGTFESILRSSQHKQDLTEKAVKQGESEVSRISEVLQKLQNEILKDLSDGIHVVKDARERDFTSLENTVEERLTELTKSINDNIAIFTEVQKRSQKEINDMKAKVASLEESEGNKQDLKALKEAVKEIQTSAKSREWDMEALRSTLQTMESDIYTEVRELVSLKQEQQAFKEAADTERLALQALTEKLLRSEESVSRLPEEIRRLEEELRQLKSDSHGPKEDGGFRHSEAFEALQQKSQGLDSRLQHVEDGVLSMQVASARQTESLESLLSKSQEHEQRLAALQGRLEGLGSSEADQDGLASTVRSLGETQLVLYGDVEELKRSVGELPSTVESLQKVQEQVHTLLSQDQAQAARLPPQDFLDRLSSLDNLKASVSQVEADLKMLRTAVDSLVAYSVKIETNENNLESAKGLLDDLRNDLDRLFVKVEKIHEKV
B5: DDX3X (protein, UniProt O00571 2-662, looked up)
ATP-dependent RNA helicase …: SHVAVENALGLDQQFAGLDLNSSDNQSGGSTASKGRYIPPHLRNREATKGFYDKDSSGWSSSKDKDAYSSFGSRSDSRGKSSFFSDRGSGSRGRFDDRGRSDYDGIGSRGDRSGFGKFERGGNSRWCDKSDEDDWSKPLPPSERLEQELFSGGNTGINFEKYDDIPVEATGNNCPPHIESFSDVEMGEIIMGNIELTRYTRPTPVQKHAIPIIKEKRDLMACAQTGSGKTAAFLLPILSQIYSDGPGEALRAMKENGRYGRRKQYPISLVLAPTRELAVQIYEEARKFSYRSRVRPCVVYGGADIGQQIRDLERGCHLLVATPGRLVDMMERGKIGLDFCKYLVLDEADRMLDMGFEPQIRRIVEQDTMPPKGVRHTMMFSATFPKEIQMLARDFLDEYIFLAVGRVGSTSENITQKVVWVEESDKRSFLLDLLNATGKDSLTLVFVETKKGADSLEDFLYHEGYACTSIHGDRSQRDREEALHQFRSGKSPILVATAVAARGLDISNVKHVINFDLPSDIEEYVHRIGRTGRVGNLGLATSFFNERNINITKDLLDLLVEAKQEVPSWLENMAYEHHYKGSSRGRSKSSRFSGGFGARDYRQSSGASSSSFSSSRASSSRSGGGGHGSSRGFGGGGYGGFYNSDGYGGNYNSQGVDWWGN
B6: GRSF1 (protein, UniProt Q12849 118-480, looked up)
G-rich sequence factor 1: SQESKTTYLEDLPPPPEYELAPSKLEEEVDDVFLIRAQGLPWSCTMEDVLNFFSDCRIRNGENGIHFLLNRDGKRRGDALIEMESEQDVQKALEKHRMYMGQRYVEVYEINNEDVDALMKSLQVKSSPVVNDGVVRLRGLPYSCNEKDIVDFFAGLNIVDITFVMDYRGRRKTGEAYVQFEEPEMANQALLKHREEIGNRYIEIFPSRRNEVRTHVGSYKGKKIASFPTAKYITEPEMVFEEHEVNEDIQPMTAFESEKEIELPKEVPEKLPEAADFGTTSSLHFVHMRGLPFQANAQDIINFFAPLKPVRITMEYSSSGKATGEADVHFETHEDAVAAMLKDRSHVHHRYIELFLNSCPKGK

Experiments:
Assay type in all cases: binding
SARS-CoV-2 gRNA = details: for target (unweighted spectral count of the protein in the RNP capture): LC-MS/MS, Probe I sample (first 199 lines of Table 2)
gRNA of HCoV-OC43 = details: for target (spectral count, OC43 Probe I RNP capture) / background (spectral count, no-probe control): type n_48_v: 48 hours post-infection; for target (spectral count, OC43 Probe I RNP capture): infected cells, unweighted spectral count; for background (spectral count, no-probe control): no-probe control on infected cells
HCoV-OC43 gRNA and sgRNA = details: for target (unweighted spectral count, OC43 Probe II capture) / target (unweighted spectral count): tested against no-probe control; for target (unweighted spectral count, OC43 Probe II capture): FDR<10%; for target (unweighted spectral count, OC43 Probe II) / background (unweighted spectral count, no-probe control): type n_48_v, 48 hpi; for target (unweighted spectral count, OC43 Probe II): OC43 Probe II capture on infected cells; for background (unweighted spectral count, no-probe control): no-probe control on infected cells; for target (spectral count) / background (spectral count): type s_36_m, Probe II; for target (spectral count): HCoV-OC43-infected HCT-8 cells; for background (spectral count): uninfected-probe control; for target (unweighted spectral count): OC43 Probe II, 24 hpi (type n_24_v), infected cells

Molecule	target (unweighted spectral count of the protein in the RNP capture) (SARS-CoV-2 gRNA; […])	target (spectral count, OC43 Probe I RNP capture) (gRNA of HCoV-OC43)	background (spectral count, no-probe control) (gRNA of HCoV-OC43)	target (unweighted spectral count, OC43 Probe II capture) (HCoV-OC43 gRNA and sgRNA; 36 hpi, type n_36_v)	target (unweighted spectral count, OC43 Probe II) (HCoV-OC43 gRNA and sgRNA)	background (unweighted spectral count, no-probe control) (HCoV-OC43 gRNA and sgRNA)	target (spectral count) (HCoV-OC43 gRNA and sgRNA; 36 hpi)	background (spectral count) (HCoV-OC43 gRNA and sgRNA; 36 hpi)	target (unweighted spectral count, OC43 Probe II capture) (HCoV-OC43 gRNA and sgRNA; 24 hpi, type n_24_v)	target (unweighted spectral count) (HCoV-OC43 gRNA and sgRNA)	further results
B1	7	9	1	7	7	1	7	1	–	–	–
B2	6	–	–	–	–	–	–	–	4	–	–
B3	5	7	1	–	–	–	–	–	–	–	target (spectral count) (gRNA of HCoV-OC43; type g_36_m, HCoV-OC43-infected HCT-8 cells, 36 hpi, Probe I): 7; background (spectral count) (gRNA of HCoV-OC43; type g_36_m, uninfected-probe control, 36 hpi, Probe I): 1
B4	–	–	–	12	–	–	12	1	–	8	target (unweighted spectral count in RNP capture) (SARS-CoV-2 gRNA; Probe I capture, […], LC-MS/MS LFQ): 5; background (unweighted spectral count in control) (SARS-CoV-2 gRNA; no-probe control pull-down, used as background for Probe I): 1
B5	17	–	–	7	11	2	–	–	–	7	–
B6	14	–	–	–	–	–	–	–	4	–	–

From patent US20230407373A1 (priority 2020, published 2023)
